Assay results taken from the DeepSol protein solubility set.

assay: soluble on expression in E. coli; label from the status in PepcDB or PDB records

Soluble on expression in E. coli, not soluble:
MGSDKIHHHHHHMSDITHTGEHQALVVGATGIIGSAILHRLGAAEGWTAIGLSRSRRVAEGRARMLEVDLLDPQDCARKLGALNRITHIFYAAYQARPSRAEEVAPNVQMLRNVVDAVSGRARGLKKIVLITGAKFYGIQWGRVKTPMKETDARQLPPNFYYDQEDFLRDAQRQADWHWCNLIPPFVSGYSVGNPMNLVMAIGVFASLSRELNLPLRFPGLPGAWSALQQIADAEQIAAAAHWAATSPAANNEAFNVTNGDPIRWENFWPAVAGHFGMRLEAPKTLPLGRLMADNEAAWARMVERYRLQAASIAKLVDWNWADYMFRMEYDVLMETGKIRRAGFQDCVDTTERFLARFRQLQQQQIIPR
MAGHVHKVAVRQLKLLRYRNYFSFNIRFSGQHVVFTGHNGSGKTNLLEALSFLSPGRGLRRAAYSDVSFANGGGEGFVVFARLECALYGEVNIGTALEMSDNSRKVHINGVNETGDCLTDYCHMSILTPSMDGLFTGSSLERRRFLDRMVLAIDPLHSRRIADYDRVMRARNRLFLDGNEDCAWFDALEKQMAELATAISAARIDVIRLLNDMLARTPSQLPFPRAFLQIDGFLEAALSKISAVEVEEQFCDRLQHNRAIDRAAGRTLEGPHRTDLQVFYADKNMAAASCSTGEQKALLTGLVLCHARLTGLMSERTPILLLDEIVAHLDSHRRAALFDILDDLGGQTFMTGTDPILFNALKGRAEFFAIKDGTLLQ
MSRDRPNKIKLPHRPGYTTYLQTGDLTSTDGEEGVYSLKLITGYTREEPEILDDVLDPSGGSSSSQRSNDPLLPASTNHPEIFDDVLDPSGGSSSSQRSNDPLLPASTFKLSCVDCKKQYNVSKSMKSQARKRKIRQDMEAEDDMLDGTGLHRMALVNVNTTMPQEAKALEELSKKLVISATLTGYDSVPINTPSKSPQVLYFQVKTHAEFDLVQEKMDKNFISQLEIESLVKSNEPFLFPYGRRRHVFTSILLATYLSLCSDEANNIDDWKDLLRNNAIIKKAVEHSDTMQKMKKYLSVDGRTMLNFYKETL
MGSDKIHHHHHHMKIMVITKNILSETAFQNRLQHLDHQVFCTTCLIGEIKESHLFYRKFDAIILSETIPRKEQYLYLKELARVKTPLFLRSEDIPTSEELSISYQYGILNWLRLDATLDTLRENLLLAELNKPIQREDEKLDVEGIKLTAAERALLAVLYSTPKEHLPMERLCKLIYDTEETANNRKKMTKQLTKLNKKIQVGGFKKQGIQNTRYKGYKLHPQLLPYIGELFT
MTVFANRLLGPKGWLLNARVTIDGLFIASVEPDSAPLPGDVRVDTLLPAPGNLHSHSFQRAMAGMTEYRSRGRESFWTWRELMYRFLDRLTPEHVAAIAAQTFVEMQKAGYAAVGEFHYLHHRPGGGHYDDRAEMSARIVQAAAETGIGLTLLPVLYTHGGADGRALAGGQLRFGNDLDAYCTLVEGARAHTRTLAADARVGIAPHSLRAVSATDLAEVAARHPDGPVHIHIAEQTREVEEIEAAYGARPVDWLLNNAAVGPRWCLIHATHMSDAETRAMASTGAVAGLCPITEANLGDGIFNGVPYLEAGGAFGVGSDSNVLISLTEELRLLEYSQRLRDRERNVLAGAEGSTGAALYLGALRGGARALDRRAGEIAPGALADLVAIDSNAPALCALEPEQLLDGLIFAAGERVVSDLWSAGRHQVRAGRHVAEESIARRYGAALRDLLARV

Soluble on expression in E. coli, soluble:
MDAYEIIQYIGDAKKQTLVKVTLKGQLKEVTFPETIKVFNNCKTGTLFGDWADVKPFLEANKEKIEDYVVENDARNSAIPFLDLKDINARIEPGALIREKVEIGDQAVIMMGAILNIGAVVGAGTMIDMGAVLGGRATVGKHCHIGAGTVLAGVIEPPSAAPVVIENEVVIGANAVVLEGVRVGEGAVVAAGAVVVEDVPAHTVVAGVPAKVIKQIDDKTKSKTEILEELRKL
GMTKPKEPTALDLPMADPLPDETQKYFEICQEKLGMVPNVLKAYAFNVEKLNAFTAMYNDLMLGESQLSKLEREMIAVVVSSINKCFYCLVAHGAAVRQLSGDPQLGEMLVMNYRVAPLDARQRVMLDFAAKMTRASAEIEEADREVLRSHGFNDRDIWDIANVTGFFNMTNRVASATAMMPNAEYHGQFR
MAEIYEEGDESVDVNKESEVKTELGKGGGDENVLQFLDSLDGYLTLMDSVNSKLREGWFDLASARHSMGTLRINSTLLDLKYHPASSTLQVTDQDVESLGSVPHFALSKWASKGGSRKGKDFSTDTDSEIGSPLSPQLRHRGVSEEKPSAKDETVLAADEEIKKERAKSLSVFGGLVSPKLRGAQQSFETALETLVEIANMRASMISAFERITEK
